Assay results: US20110118131A1 (published 2011)

Target: T1, IL-1beta (UniProt P01584 117-269)
T1 construct: also called IL-1β
Assay: Biacore

Binder | binding result | fold difference in affinity vs parental
XPA23 Fab, heavy chain R59H (Fab, V domains shown) VH: EVQLLESGGGLVQPGGSLRLSCAASGFTFSKYFMFWVRQAPGKGLEWVSVISPSGGMTHYADSVKGRFTISRDNSKNTLYLQMNSLRAEDTAVYYCARVGYGGNSDYWGQGTLVTVSS VL: DIQMTQSPSSVSASVGDRLTIICRASQDINRWLAWYQQTPGNAPKLLIHSATSLQSGVPSRFSGSGSGTDFTLTINSLQPEDFATYYCQQADSFPLTFGGGTKVEIK | no binding | –
XPA23 Fab, heavy chain R59K (Fab, V domains shown) VH: EVQLLESGGGLVQPGGSLRLSCAASGFTFSKYFMFWVRQAPGKGLEWVSVISPSGGMTKYADSVKGRFTISRDNSKNTLYLQMNSLRAEDTAVYYCARVGYGGNSDYWGQGTLVTVSS VL: DIQMTQSPSSVSASVGDRLTIICRASQDINRWLAWYQQTPGNAPKLLIHSATSLQSGVPSRFSGSGSGTDFTLTINSLQPEDFATYYCQQADSFPLTFGGGTKVEIK | – | 0.94 fold
XPA23 Fab, heavy chain R59N (Fab, V domains shown) VH: EVQLLESGGGLVQPGGSLRLSCAASGFTFSKYFMFWVRQAPGKGLEWVSVISPSGGMTNYADSVKGRFTISRDNSKNTLYLQMNSLRAEDTAVYYCARVGYGGNSDYWGQGTLVTVSS VL: DIQMTQSPSSVSASVGDRLTIICRASQDINRWLAWYQQTPGNAPKLLIHSATSLQSGVPSRFSGSGSGTDFTLTINSLQPEDFATYYCQQADSFPLTFGGGTKVEIK | – | 0.86 fold
XPA23 Fab, heavy chain R59Q (Fab, V domains shown) VH: EVQLLESGGGLVQPGGSLRLSCAASGFTFSKYFMFWVRQAPGKGLEWVSVISPSGGMTQYADSVKGRFTISRDNSKNTLYLQMNSLRAEDTAVYYCARVGYGGNSDYWGQGTLVTVSS VL: DIQMTQSPSSVSASVGDRLTIICRASQDINRWLAWYQQTPGNAPKLLIHSATSLQSGVPSRFSGSGSGTDFTLTINSLQPEDFATYYCQQADSFPLTFGGGTKVEIK | – | 0.86 fold
XPA23 Fab, heavy chain R59S (Fab, V domains shown) VH: EVQLLESGGGLVQPGGSLRLSCAASGFTFSKYFMFWVRQAPGKGLEWVSVISPSGGMTSYADSVKGRFTISRDNSKNTLYLQMNSLRAEDTAVYYCARVGYGGNSDYWGQGTLVTVSS VL: DIQMTQSPSSVSASVGDRLTIICRASQDINRWLAWYQQTPGNAPKLLIHSATSLQSGVPSRFSGSGSGTDFTLTINSLQPEDFATYYCQQADSFPLTFGGGTKVEIK | – | 0.13 fold
XPA23 Fab, heavy chain R59W (Fab, V domains shown) VH: EVQLLESGGGLVQPGGSLRLSCAASGFTFSKYFMFWVRQAPGKGLEWVSVISPSGGMTWYADSVKGRFTISRDNSKNTLYLQMNSLRAEDTAVYYCARVGYGGNSDYWGQGTLVTVSS VL: DIQMTQSPSSVSASVGDRLTIICRASQDINRWLAWYQQTPGNAPKLLIHSATSLQSGVPSRFSGSGSGTDFTLTINSLQPEDFATYYCQQADSFPLTFGGGTKVEIK | – | 0.09 fold
XPA23 Fab, heavy chain R59Y (Fab, V domains shown) VH: EVQLLESGGGLVQPGGSLRLSCAASGFTFSKYFMFWVRQAPGKGLEWVSVISPSGGMTYYADSVKGRFTISRDNSKNTLYLQMNSLRAEDTAVYYCARVGYGGNSDYWGQGTLVTVSS VL: DIQMTQSPSSVSASVGDRLTIICRASQDINRWLAWYQQTPGNAPKLLIHSATSLQSGVPSRFSGSGSGTDFTLTINSLQPEDFATYYCQQADSFPLTFGGGTKVEIK | no binding | –
XPA23 Fab, heavy chain S30D (Fab, V domains shown) VH: EVQLLESGGGLVQPGGSLRLSCAASGFTFDKYFMFWVRQAPGKGLEWVSVISPSGGMTRYADSVKGRFTISRDNSKNTLYLQMNSLRAEDTAVYYCARVGYGGNSDYWGQGTLVTVSS VL: DIQMTQSPSSVSASVGDRLTIICRASQDINRWLAWYQQTPGNAPKLLIHSATSLQSGVPSRFSGSGSGTDFTLTINSLQPEDFATYYCQQADSFPLTFGGGTKVEIK | no binding | –
XPA23 Fab, heavy chain S30E (Fab, V domains shown) VH: EVQLLESGGGLVQPGGSLRLSCAASGFTFEKYFMFWVRQAPGKGLEWVSVISPSGGMTRYADSVKGRFTISRDNSKNTLYLQMNSLRAEDTAVYYCARVGYGGNSDYWGQGTLVTVSS VL: DIQMTQSPSSVSASVGDRLTIICRASQDINRWLAWYQQTPGNAPKLLIHSATSLQSGVPSRFSGSGSGTDFTLTINSLQPEDFATYYCQQADSFPLTFGGGTKVEIK | no binding | –
XPA23 Fab, heavy chain S30F (Fab, V domains shown) VH: EVQLLESGGGLVQPGGSLRLSCAASGFTFFKYFMFWVRQAPGKGLEWVSVISPSGGMTRYADSVKGRFTISRDNSKNTLYLQMNSLRAEDTAVYYCARVGYGGNSDYWGQGTLVTVSS VL: DIQMTQSPSSVSASVGDRLTIICRASQDINRWLAWYQQTPGNAPKLLIHSATSLQSGVPSRFSGSGSGTDFTLTINSLQPEDFATYYCQQADSFPLTFGGGTKVEIK | no binding | –
XPA23 Fab, heavy chain S30H (Fab, V domains shown) VH: EVQLLESGGGLVQPGGSLRLSCAASGFTFHKYFMFWVRQAPGKGLEWVSVISPSGGMTRYADSVKGRFTISRDNSKNTLYLQMNSLRAEDTAVYYCARVGYGGNSDYWGQGTLVTVSS VL: DIQMTQSPSSVSASVGDRLTIICRASQDINRWLAWYQQTPGNAPKLLIHSATSLQSGVPSRFSGSGSGTDFTLTINSLQPEDFATYYCQQADSFPLTFGGGTKVEIK | no binding | –
XPA23 Fab, heavy chain S30K (Fab, V domains shown) VH: EVQLLESGGGLVQPGGSLRLSCAASGFTFKKYFMFWVRQAPGKGLEWVSVISPSGGMTRYADSVKGRFTISRDNSKNTLYLQMNSLRAEDTAVYYCARVGYGGNSDYWGQGTLVTVSS VL: DIQMTQSPSSVSASVGDRLTIICRASQDINRWLAWYQQTPGNAPKLLIHSATSLQSGVPSRFSGSGSGTDFTLTINSLQPEDFATYYCQQADSFPLTFGGGTKVEIK | no binding | –
XPA23 Fab, heavy chain S30N (Fab, V domains shown) VH: EVQLLESGGGLVQPGGSLRLSCAASGFTFNKYFMFWVRQAPGKGLEWVSVISPSGGMTRYADSVKGRFTISRDNSKNTLYLQMNSLRAEDTAVYYCARVGYGGNSDYWGQGTLVTVSS VL: DIQMTQSPSSVSASVGDRLTIICRASQDINRWLAWYQQTPGNAPKLLIHSATSLQSGVPSRFSGSGSGTDFTLTINSLQPEDFATYYCQQADSFPLTFGGGTKVEIK | – | 0.15 fold
XPA23 Fab, heavy chain S30Q (Fab, V domains shown) VH: EVQLLESGGGLVQPGGSLRLSCAASGFTFQKYFMFWVRQAPGKGLEWVSVISPSGGMTRYADSVKGRFTISRDNSKNTLYLQMNSLRAEDTAVYYCARVGYGGNSDYWGQGTLVTVSS VL: DIQMTQSPSSVSASVGDRLTIICRASQDINRWLAWYQQTPGNAPKLLIHSATSLQSGVPSRFSGSGSGTDFTLTINSLQPEDFATYYCQQADSFPLTFGGGTKVEIK | no binding | –
XPA23 Fab, heavy chain S30R (Fab, V domains shown) VH: EVQLLESGGGLVQPGGSLRLSCAASGFTFRKYFMFWVRQAPGKGLEWVSVISPSGGMTRYADSVKGRFTISRDNSKNTLYLQMNSLRAEDTAVYYCARVGYGGNSDYWGQGTLVTVSS VL: DIQMTQSPSSVSASVGDRLTIICRASQDINRWLAWYQQTPGNAPKLLIHSATSLQSGVPSRFSGSGSGTDFTLTINSLQPEDFATYYCQQADSFPLTFGGGTKVEIK | – | 0.1 fold
XPA23 Fab, heavy chain S30W (Fab, V domains shown) VH: EVQLLESGGGLVQPGGSLRLSCAASGFTFWKYFMFWVRQAPGKGLEWVSVISPSGGMTRYADSVKGRFTISRDNSKNTLYLQMNSLRAEDTAVYYCARVGYGGNSDYWGQGTLVTVSS VL: DIQMTQSPSSVSASVGDRLTIICRASQDINRWLAWYQQTPGNAPKLLIHSATSLQSGVPSRFSGSGSGTDFTLTINSLQPEDFATYYCQQADSFPLTFGGGTKVEIK | – | 0.77 fold
XPA23 Fab, heavy chain S30Y (Fab, V domains shown) VH: EVQLLESGGGLVQPGGSLRLSCAASGFTFYKYFMFWVRQAPGKGLEWVSVISPSGGMTRYADSVKGRFTISRDNSKNTLYLQMNSLRAEDTAVYYCARVGYGGNSDYWGQGTLVTVSS VL: DIQMTQSPSSVSASVGDRLTIICRASQDINRWLAWYQQTPGNAPKLLIHSATSLQSGVPSRFSGSGSGTDFTLTINSLQPEDFATYYCQQADSFPLTFGGGTKVEIK | no binding | –
XPA23 Fab, heavy chain S52D (Fab, V domains shown) VH: EVQLLESGGGLVQPGGSLRLSCAASGFTFSKYFMFWVRQAPGKGLEWVSVIDPSGGMTRYADSVKGRFTISRDNSKNTLYLQMNSLRAEDTAVYYCARVGYGGNSDYWGQGTLVTVSS VL: DIQMTQSPSSVSASVGDRLTIICRASQDINRWLAWYQQTPGNAPKLLIHSATSLQSGVPSRFSGSGSGTDFTLTINSLQPEDFATYYCQQADSFPLTFGGGTKVEIK | no binding | –
XPA23 Fab, heavy chain S52E (Fab, V domains shown) VH: EVQLLESGGGLVQPGGSLRLSCAASGFTFSKYFMFWVRQAPGKGLEWVSVIEPSGGMTRYADSVKGRFTISRDNSKNTLYLQMNSLRAEDTAVYYCARVGYGGNSDYWGQGTLVTVSS VL: DIQMTQSPSSVSASVGDRLTIICRASQDINRWLAWYQQTPGNAPKLLIHSATSLQSGVPSRFSGSGSGTDFTLTINSLQPEDFATYYCQQADSFPLTFGGGTKVEIK | no binding | –
XPA23 Fab, heavy chain S52F (Fab, V domains shown) VH: EVQLLESGGGLVQPGGSLRLSCAASGFTFSKYFMFWVRQAPGKGLEWVSVIFPSGGMTRYADSVKGRFTISRDNSKNTLYLQMNSLRAEDTAVYYCARVGYGGNSDYWGQGTLVTVSS VL: DIQMTQSPSSVSASVGDRLTIICRASQDINRWLAWYQQTPGNAPKLLIHSATSLQSGVPSRFSGSGSGTDFTLTINSLQPEDFATYYCQQADSFPLTFGGGTKVEIK | no binding | –
XPA23 Fab, heavy chain S52H (Fab, V domains shown) VH: EVQLLESGGGLVQPGGSLRLSCAASGFTFSKYFMFWVRQAPGKGLEWVSVIHPSGGMTRYADSVKGRFTISRDNSKNTLYLQMNSLRAEDTAVYYCARVGYGGNSDYWGQGTLVTVSS VL: DIQMTQSPSSVSASVGDRLTIICRASQDINRWLAWYQQTPGNAPKLLIHSATSLQSGVPSRFSGSGSGTDFTLTINSLQPEDFATYYCQQADSFPLTFGGGTKVEIK | no binding | –
XPA23 Fab, heavy chain S52K (Fab, V domains shown) VH: EVQLLESGGGLVQPGGSLRLSCAASGFTFSKYFMFWVRQAPGKGLEWVSVIKPSGGMTRYADSVKGRFTISRDNSKNTLYLQMNSLRAEDTAVYYCARVGYGGNSDYWGQGTLVTVSS VL: DIQMTQSPSSVSASVGDRLTIICRASQDINRWLAWYQQTPGNAPKLLIHSATSLQSGVPSRFSGSGSGTDFTLTINSLQPEDFATYYCQQADSFPLTFGGGTKVEIK | no binding | –
